According to patent US20240150423A1, “GLP-1 ANALOGUE-MODIFIED DIMERS WITH DIFFERENT CONFIGURATIONS, PREPARATION METHOD THEREOF, AND APPLICATION THEREOF IN TREATMENT OF TYPE II DIABETES” (Nanjing Finepeptide Biopharmaceutical Co.,Ltd, priority 2019, published 2024):
Starred links: 1 amine or outer side, 2 acyl side, 3 side chain; linkers in the order of their positions; H or OH if unused. Groups on a side chain read outwards from the residue. γGlu = O=C(O)[C@H](CCC(=O)[*:2])N[*:1]; oleoyl = alkanoyl with 18 carbons

Tested on: Normal Kunming (KM) mice
Assay: multiple OGTT (mOGTT): hypoglycemic duration after a single administration
Assay type: in vivo
Conditions: single injection at the same dose (1.126 nmol), subcutaneous
From the text: • 1. Methods: Normal Kunming (KM) mice (purchased from Guangdong Animal Center) were used for oral glucose tolerance test (OGTT) to obtain the hypoglycemic activity and durability of drug. […] The blood glucose meter and blood glucose test paper were from Bayer […]. The average blood glucose of each group was used as an evaluation standard: When the average blood glucose of experimental group was higher than that of the NaCl control group for two times, the measurement stopped and the hypoglycemic period compared to the blank control group was the effective duration. • 2. Results • 2.1 single OGTTs: after a single administration, the mice were orally administered glucose once and measured the blood glucose from the tail blood at 0, 10, 20, 40, 60 and 120 min. […] The duration of each monomer group was about 1⁄2-1⁄4 of the duration of its corresponding dimer group. […] Therefore, the 2G3 peptide was selected for treating type II diabetes (T2D) in vivo and subsequent experiments.

| Molecule | Hypoglycemic duration [days] | Hypoglycemic (day) (monomeric peptides) |
| --- | --- | --- |
| 2G9 series 70: disulfide-linked homodimer of monomer SEQ ID NO: 70 (also: disulfide-linked homodimer, feature at 62: C-terminal) HAEGTFTSDVSCYLEGQAAK([γGlu-oleoyl])EFIAWLVRGRGHGEGTFTSDVSSYLEGQAAREFIAWLVRGRG | 11 | – |
| His-Ala-Glu-Gly-Thr-Phe-Thr-Ser-Asp-Val-Ser-Cys-Tyr-Leu-Glu-Gly-Gln-Ala-Ala-Lys[N-ϵ-(N-α-oleoyl-L-γ-glutamyl)]-Glu-Phe-Ile-Ala-Trp-Leu-Val-Arg-Gly-Arg-Gly-His-Gly-Glu-Gly-Thr-Phe-Thr-Ser-Asp-Val-Ser-S … (peptide) HAEGTFTSDVSCYLEGQAAK([γGlu-oleoyl])EFIAWLVRGRGHGEGTFTSDVSSYLEGQAAREFIAWLVRGRG-OH | – | 5 (G9 peptide) day |
| 2G2 series 10: disulfide-linked homodimer of monomer SEQ ID NO: 10 (not fully specified; disulfide-linked homodimer; Sequence is synthesized; (20)..(20) Xaa is 26Lys[N-e-(N-a-oleoyl-L-g-glutamyl)]; (31)..(31) N-terminal) chain 1: HAEGTFTSDVCSYLEGQAAXEFIAWLVRGRG chain 2: HAEGTFTSDVCSYLEGQAAXEFIAWLVRGRG | 8 | – |
| 2G2 series 15: disulfide-linked homodimer of monomer SEQ ID NO: 15 (not fully specified; disulfide-linked homodimer; Sequence is synthesized; (2)..(2) Xaa is bAib; (20)..(20) Xaa is 26Lys[N-e-(N-a-oleoyl-L-g-glutamyl)]; (31)..(31) N-terminal) chain 1: HXEGTFTSDVCSYLEGQAAXEFIAWLVRGRG chain 2: HXEGTFTSDVCSYLEGQAAXEFIAWLVRGRG | 10 | – |
| 2G2 series 18: disulfide-linked homodimer of monomer SEQ ID NO: 18 (not fully specified; disulfide-linked homodimer; Sequence is synthesized; (2)..(2) Xaa is bAla; (20)..(20) Xaa is 26Lys[N-e-(N-a-oleoyl-L-g-glutamyl)]; (31)..(31) N-terminal) chain 1: HXEGTFTSDVCSYLEGQAAXEFIAWLVRGRG chain 2: HXEGTFTSDVCSYLEGQAAXEFIAWLVRGRG | 9 | – |
